Common to all, as to assay: SPR
In general terms: SPR reads the build-up and loss of mass on a sensor chip optically.

Test [1] addresses BES1e6BES17e7 chimera (BES1 ESAG6 with BES17 ESAG7) (Trypanosoma brucei) (UniProt Q8WPU1).
Test [2] has as its target BES17 transferrin receptor (glycosylated heterodimer of BES17 ESAG6 and BES17 ESAG7) (Trypanosoma brucei) (UniProt Q8WPU1).
The target of test [3] is BES17e6BES1e7 chimera (BES17 ESAG6 with BES1 ESAG7) (Trypanosoma brucei) (UniProt Q8WPU1).
Test [4] addresses BES1 transferrin receptor (glycosylated heterodimer of BES1 ESAG6 and BES1 ESAG7) (Trypanosoma brucei) (UniProt Q8WPU1).

“human holo-transferrin (from UniProt P02787 20-698) (ligand)”: the Kd (usually the concentration at which binding is half-saturated) in test [1] was found to be 0.243 µM; in test [2], 0.0131 µM; in test [3], 0.353 µM.
In the case of “cow transferrin (from UniProt Q29443 20-704) (ligand)”, in test [4], the Kd came to 0.0801 µM.

(Values after PMC6881179.)
